Columns and labels:
S. aureus Tanji 19 = assay: Plate lysis assay; assay type: cell-based; conditions: 100 pmoles and 2-fold serial dilutions spotted on bacterial lawns
Protocol: (§1) Purified proteins (100 pmoles in a 10 μl volume and five two-fold serial dilutions thereof) were spotted onto a freshly spread lawn of log phase staphylococcal cells (OD600 nm of 0.4-0.6, diluted ¼ before plating) that had air dried for 15 min on gridded TSA (tryptic soy agar) plates. The spotted plates were air dried for 10 min in a laminar flow hood and incubated overnight at 37° C. Cleared spots indicating cell lysis were scored within 24 hours of plating the cells.
(§2) The φSH2 full length enzyme and the A1 construct were further tested in plate lysis assays against a set of different staphylococcal strains, including MRSA strains (NRS 382-385), mastitis isolates (305, Tanji 1-26), and coagulase negative staphylococci (non S. aureus) (Table 2). The same molar amounts of both proteins (ranging from 100 pmoles to 3.125 pmoles, in a volume of 10 ul) were spotted onto lawns of mid log phase cells of the respective strains, and the plates were analyzed for lysis zones the next day.

S. aureus Newman = assay: Plate lysis assay; assay type: cell-based
Protocol: as §1, §2

S. aureus NRS 385 = assay: Plate lysis assay; assay type: cell-based; conditions: S. aureus NRS 385 (MRSA); 100 pmoles and 2-fold serial dilutions spotted on bacterial lawns
Protocol: as §1, §2

S. warneri = assay: Plate lysis assay; assay type: cell-based; conditions: 100 pmoles and 2-fold serial dilutions spotted on bacterial lawns
Protocol: as §1, §2

S. aureus NRS 384 = assay: Plate lysis assay; assay type: cell-based; conditions: S. aureus NRS 384 (MRSA); 100 pmoles and 2-fold serial dilutions spotted on bacterial lawns
Protocol: as §1, §2

S. chromogenes = assay: Plate lysis assay; assay type: cell-based; conditions: 100 pmoles and 2-fold serial dilutions spotted on bacterial lawns
Protocol: as §1, §2

S. aureus 305 = assay: Plate lysis assay; assay type: cell-based; conditions: 100 pmoles and 2-fold serial dilutions spotted on bacterial lawns
Protocol: as §1, §2

S. aureus Tanji 26 = assay: Plate lysis assay; assay type: cell-based; conditions: 100 pmoles and 2-fold serial dilutions spotted on bacterial lawns
Protocol: as §1, §2

S. aureus Tanji 1 = assay: Plate lysis assay; assay type: cell-based; conditions: 100 pmoles and 2-fold serial dilutions spotted on bacterial lawns
Protocol: as §1, §2

S. aureus NRS 382 = assay: Plate lysis assay; assay type: cell-based; conditions: S. aureus NRS 382 (MRSA); 100 pmoles and 2-fold serial dilutions spotted on bacterial lawns
Protocol: as §1, §2

S. aureus NRS 383 = assay: Plate lysis assay; assay type: cell-based; conditions: S. aureus NRS 383 (MRSA); 100 pmoles and 2-fold serial dilutions spotted on bacterial lawns
Protocol: as §1, §2

S. xylocus = assay: Plate lysis assay; assay type: cell-based; conditions: 100 pmoles and 2-fold serial dilutions spotted on bacterial lawns
Protocol: as §1, §2

S. aureus Tanji 20 = assay: Plate lysis assay; assay type: cell-based; conditions: 100 pmoles and 2-fold serial dilutions spotted on bacterial lawns
Protocol: as §1, §2

S. epidermidis = assay: Plate lysis assay; assay type: cell-based; conditions: 100 pmoles and 2-fold serial dilutions spotted on bacterial lawns
Protocol: as §1, §2

S. simulans = assay: Plate lysis assay; assay type: cell-based
Protocol: as §1, §2

S. hyicus = assay: Plate lysis assay; assay type: cell-based
Protocol: as §1, §2

[1] = tested on: staphylococcal strains (MRSA strains, mastitis isolates, coagulase negative staphylococci); assay: Plate lysis assay, whole set of strains; assay type: cell-based, Staphylococcus; conditions: 100 to 3.125 pmoles spotted
Protocol: as §1, §2

S. aureus Newman cells [2] = assay: Zymogram with S. aureus Newman cells embedded in the gel; assay type: cell-based; conditions: 5 μg protein
Protocol: All purified proteins were analyzed with 15% SDS-PAGE, using a Kaleidoscope Precision Plus Protein Standard (BioRad, Hercules, Calif.). For zymograms, a 300 mL culture volume equivalent of live mid-log phase (OD600nm=0.4-0.6) cells of S. aureus strain Newman was embedded in the gel during polymerization. The protein samples were boiled in Laemmli sample buffer (BioRad) with β-mercaptoethanol, and electrophoresed with identical buffers and voltage for one hour in both the SDS-PAGE and the zymogram using a Mini-Protean TETRA gel system (BioRad). SDS gels were Coomassie stained and zymograms were washed in excess water and further incubated in deionized water for 60 min, followed by incubation in 10 mM Tris, pH 8.0 with 150 mM or 300 mM NaCl for 80 min. Areas of clearing in the turbid zymogram gel indicate a lytic protein in the gel.

S. aureus Newman cells [3] = assay: Turbidity reduction assay; assay type: cell-based, Staphylococcus aureus
Protocol: The turbidity reduction assay measures a decrease in optical density of a bacterial suspension due to lysis of the target bacteria by a lytic protein. The assays were performed in a 96-well dish format essentially as described previously (Donovan et al. 2006, supra). In order to reduce the variability of the assay, frozen stocks of S. aureus Newman substrate cells were prepared in a large batch as described by Becker et al. (2009b, supra). Immediately prior to the assay, the frozen cells were thawed, washed, and resuspended in the desired assay buffer such that when 100 μl of cell suspension were added to 100 μl of lysis buffer+/−protein, the final suspension has an OD600nm of ˜1.0.
Protein constructs were assayed at a concentration of 1 μM, and the assay was performed at room temperature, measuring the OD600nm at 1 min intervals for 45 min. Buffer without enzyme served as the control. The steepest slopes of the resulting lysis curves, which correspond to the lytic activities of the proteins, were determined by a sliding window over each group of three consecutive time points for the entire 45 min period. Specific activities were expressed as ΔOD600nm/min/μM, and the “no enzyme” control value was subtracted from each experimental value.
In order to determine the effect of salt concentration on lytic activity, turbidity reduction assays were performed in 10 mM Tris buffers at pH 7.5 with varying NaCl concentrations between 0 mM and 600 mM. Accordingly, the influence of pH was determined by using a series of different buffers with pH values ranging from 3.5 to 10.0. Citrate buffers were used for pH 3.5, 4.5, 5.5, and 6.0, MOPS buffers for pH 6.5, 7.0, and 7.5, Tris buffers for pH 8.0 and 9.0, and Carbonate/bicarbonate buffer for pH 10.0. The concentration of the buffer substance in all buffers used was 20 mM, and the NaCl concentration was 200 mM. To test the effect of bivalent metal ions, assays were performed in 10 mM Tris, 200 mM NaCl, pH 7.5 supplemented with MgCl2, MnCl2, or CaCl2 at different concentrations (0.1 mM, 1 mM, 10 mM), buffer without metal ions serving as control.

[4] = 100 pmoles and 2-fold serial dilutions spotted on bacterial lawns

B1: ΦSH2 A1: Truncation of φSH2 lysin (1-166), isolated CHAP domain, 6×His-tagged, from pφSH2_A1, SEQ ID NO:4 (protein)
chain: MKTQAEINKRLDAYRKGTVDSPYRVKVWTSYDNRFYPMEPGCIDVDKSFHAQCADLTIDYILWLTDNEFRIRGNAKDAINPKKNKLPEGWKIVLNRPSTVPRKGWIAVFTDGTYWEYGHIGMVYDGGNTSRFQILEQNWNGWANKKPSLRWDNYYGLTHFIVPPVALEHHHHHH
modifications: 6xHis tag; Bacteriophage Phi SH2
- Lytic activity (lowest amount of protein producing a lysis zone) (S. aureus Tanji 19): +++ (+++: 25 pmoles)
- Lytic activity (lowest amount of protein producing a lysis zone) (S. aureus Newman; [4]): + (+: 100 pmoles)
- amount of protein causing a lysis zone (S. aureus Newman; 100 to 3.125 pmoles spotted): 100 pmol
- Lytic activity (lowest amount of protein producing a lysis zone) (S. aureus NRS 385): − (‘−’ means that no lysis was observed at the highest amount tested (100 pmoles))
- Lytic activity (lowest amount of protein producing a lysis zone) (S. warneri): ++ (++: 50 pmoles)
- Lytic activity (lowest amount of protein producing a lysis zone) (S. aureus NRS 384): ++ (++: 50 pmoles)
- Lytic activity (lowest amount of protein producing a lysis zone) (S. chromogenes): ++ (++: 50 pmoles)
- Lytic activity (lowest amount of protein producing a lysis zone) (S. aureus 305): ++++ (++++: 12.5 pmoles)
- Lytic activity (lowest amount of protein producing a lysis zone) (S. aureus Tanji 26): + (+: 100 pmoles)
- Lytic activity (lowest amount of protein producing a lysis zone) (S. aureus Tanji 1): +++ (+++: 25 pmoles)
- Lytic activity (lowest amount of protein producing a lysis zone) (S. aureus NRS 382): ++ (++: 50 pmoles)
- Lytic activity (lowest amount of protein producing a lysis zone) (S. aureus NRS 383): − (‘−’ means that no lysis was observed at the highest amount tested (100 pmoles))
- Lytic activity (lowest amount of protein producing a lysis zone) (S. xylocus): ++ (++: 50 pmoles)
- Lytic activity (lowest amount of protein producing a lysis zone) (S. aureus Tanji 20): +++ (+++: 25 pmoles)
- Lytic activity (lowest amount of protein producing a lysis zone) (S. epidermidis): − (‘−’ means that no lysis was observed at the highest amount tested (100 pmoles))
- Lytic activity (lowest amount of protein producing a lysis zone) (S. simulans; [4]): +++ (+++: 25 pmoles)
- amount of protein causing a lysis zone (S. simulans; 100 to 3.125 pmoles spotted): 25 pmol
- Lytic activity (lowest amount of protein producing a lysis zone) (S. hyicus; [4]): ++++ (++++: 12.5 pmoles)
- amount of protein causing a lysis zone (S. hyicus; 100 to 3.125 pmoles spotted): 12.5 pmol
- strains against which lytic activity was displayed ([1]; 16 strains tested): 13 out of 16
- MRSA strains lysed ([1]; four MRSA strains (NRS 382-385)): two MRSA strains
- lysis in zymogram (S. aureus Newman cells [2]; after incubation in deionized water for 60 min): did not cause a lytic band
- lysis in zymogram (S. aureus Newman cells [2]; water 60 min, then 10 mM Tris, 150 mM NaCl, pH 8.0 up to 80 min): intense lytic band
- lytic (specific) activity compared with the full length φSH2 lysin (S. aureus Newman cells [3]; 1 μM protein, at optimum salt concentration): approximately three-fold higher
- increase of lytic activity by Ca2+ (S. aureus Newman cells [3]; 1 mM CaCl2, relative to 0 mM, 10 mM Tris, 200 mM NaCl, pH 7.5): more than 6 fold
- effect of Mg2+ on lytic activity (S. aureus Newman cells [3]; 0.1-10 mM MgCl2, 10 mM Tris, 200 mM NaCl, pH 7.5): not significantly alter
- effect of Mn2+ on lytic activity (S. aureus Newman cells [3]; 0.1-10 mM MnCl2, 10 mM Tris, 200 mM NaCl, pH 7.5): slightly inhibitory effect

From patent US8980614B2, “Staphylococcus haemolyticus prophage φSH2 endolysin is lytic for Staphylococcus aureus” (The United States of America, as represented by The …, priority 2012, dated 2015)
